Biological target: T1, cynomolgus monkey FcγRIIa3 extracellular domain, His-tagged (cynomolgus monkey)
T1 construct: also called cyno FcγRIIa3; cynoFcgRIIa3; not shown: C-terminal His-tag
T1 chain: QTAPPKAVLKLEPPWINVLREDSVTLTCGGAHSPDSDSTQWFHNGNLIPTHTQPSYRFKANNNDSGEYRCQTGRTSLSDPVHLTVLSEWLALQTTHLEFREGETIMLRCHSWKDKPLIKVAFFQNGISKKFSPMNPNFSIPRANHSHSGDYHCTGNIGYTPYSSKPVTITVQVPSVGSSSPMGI
Assay: SPR (BIACORE), captured antibody, FcgR as analyte

| Binder | Kd [µM] |
| --- | --- |
| MS_M103205H795-SG1/M103202L889-SK1 (antibody, human IgG1, kappa, Parent antibody with heavy chain constant region SG1; also called MS1032LO06-SG1; copies: 2 + 2) heavy: not shown light: DIVMTQSPATLSLSPGERATLSCTSSQSVYHANWLSWFQQKPGQPPKLLIYWASTLAYGVPSRFSGSGSGTDFTLTISSLQPEDAATYYCAGGYGGGRYAFGQGTKVEIKRTVAAPSVFIFPPSDEQLKSGTASVVCLLNNFYPREAKVQWKVDNALQSGNSQESVTEQDSKDSTYSLSSTLTLSKADYEKHKVYACEVTHQGLSSPVTKSFNRGEC | 17 |
| M103205H795-MY265/M103202L889-SK1 (antibody, human IgG1, kappa, also called MS103205H795-MY265; copies: 2 + 2) heavy: QVTLKESGPVLVKPTETLTLTCTVSGIDLSHDDISWVRQAPGKGLEWVGIISYAGSTYYASWAKGRLTISKDTSKNQVVLTMTNMDPVDTATYYCARGVPAYSHGGDLWGQGTLVTVSSASTKGPSVFPLAPSSKSTSGGTAALGCLVKDYFPEPVTVSWNSGALTSGVHTFPAVLQSSGLYSLSSVVTVPSSSLGTQTYICNVNHKPSNTKVDKKVEPKSCDKTHTCPPCPAPELLTGPSVFLFPPKPKDTLMISRTPEVTCVVVDVSDEDPEVKFNWYVDGVEVHNAKTKPREEQYNSTYRVVSVLTVLHQDWLNGKEYKCKVSNKALPKPIEKTISKAKGQPREPQVYTLPPSREEMTKNQVSLTCLVKGFYPSDIAVEWESNGQPENNYKTTPPVLDSDGSFFLYSKLTVDKSRWQQGNVFSCSVMHEALHNHYTQKSLSLSP light: DIVMTQSPATLSLSPGERATLSCTSSQSVYHANWLSWFQQKPGQPPKLLIYWASTLAYGVPSRFSGSGSGTDFTLTISSLQPEDAATYYCAGGYGGGRYAFGQGTKVEIKRTVAAPSVFIFPPSDEQLKSGTASVVCLLNNFYPREAKVQWKVDNALQSGNSQESVTEQDSKDSTYSLSSTLTLSKADYEKHKVYACEVTHQGLSSPVTKSFNRGEC | 4.8 |
| M103205H795-MY441/M103202L889-SK1 (antibody, human IgG1, kappa, copies: 2 + 2) heavy: QVTLKESGPVLVKPTETLTLTCTVSGIDLSHDDISWVRQAPGKGLEWVGIISYAGSTYYASWAKGRLTISKDTSKNQVVLTMTNMDPVDTATYYCARGVPAYSHGGDLWGQGTLVTVSSASTKGPSVFPLAPSSKSTSGGTAALGCLVKDYFPEPVTVSWNSGALTSGVHTFPAVLQSSGLYSLSSVVTVPSSSLGTQTYICNVNHKPSNTKVDKKVEPKSCDKTHTCPPCPAAELLTGPSVFLFPPKPKDTLMISRTPEVTCVVVDVSDEDPEVKFNWYVDGVEVHNAKTKPREEQYNSTYRVVSVLTVLHQDWLNGKEYKCKVSNKALPKPIEKTISKAKGQPREPQVYTLPPSREEMTKNQVSLTCLVKGFYPSDIAVEWESNGQPENNYKTTPPVLDSDGSFFLYSKLTVDKSRWQQGNVFSCSVMHEALHNHYTQKSLSLSP light: DIVMTQSPATLSLSPGERATLSCTSSQSVYHANWLSWFQQKPGQPPKLLIYWASTLAYGVPSRFSGSGSGTDFTLTISSLQPEDAATYYCAGGYGGGRYAFGQGTKVEIKRTVAAPSVFIFPPSDEQLKSGTASVVCLLNNFYPREAKVQWKVDNALQSGNSQESVTEQDSKDSTYSLSSTLTLSKADYEKHKVYACEVTHQGLSSPVTKSFNRGEC | 8 |
| M103205H795-MY446/M103202L889-SK1 (antibody, human IgG1, kappa, copies: 2 + 2) heavy: QVTLKESGPVLVKPTETLTLTCTVSGIDLSHDDISWVRQAPGKGLEWVGIISYAGSTYYASWAKGRLTISKDTSKNQVVLTMTNMDPVDTATYYCARGVPAYSHGGDLWGQGTLVTVSSASTKGPSVFPLAPSSKSTSGGTAALGCLVKDYFPEPVTVSWNSGALTSGVHTFPAVLQSSGLYSLSSVVTVPSSSLGTQTYICNVNHKPSNTKVDKKVEPKSCDKTHTCPPCPAHELLTGPSVFLFPPKPKDTLMISRTPEVTCVVVDVSDEDPEVKFNWYVDGVEVHNAKTKPREEQYNSTYRVVSVLTVLHQDWLNGKEYKCKVSNKALPKPIEKTISKAKGQPREPQVYTLPPSREEMTKNQVSLTCLVKGFYPSDIAVEWESNGQPENNYKTTPPVLDSDGSFFLYSKLTVDKSRWQQGNVFSCSVMHEALHNHYTQKSLSLSP light: DIVMTQSPATLSLSPGERATLSCTSSQSVYHANWLSWFQQKPGQPPKLLIYWASTLAYGVPSRFSGSGSGTDFTLTISSLQPEDAATYYCAGGYGGGRYAFGQGTKVEIKRTVAAPSVFIFPPSDEQLKSGTASVVCLLNNFYPREAKVQWKVDNALQSGNSQESVTEQDSKDSTYSLSSTLTLSKADYEKHKVYACEVTHQGLSSPVTKSFNRGEC | 4.7 |
| M103205H795-MY442/M103202L889-SK1 (antibody, human IgG1, kappa, copies: 2 + 2) heavy: QVTLKESGPVLVKPTETLTLTCTVSGIDLSHDDISWVRQAPGKGLEWVGIISYAGSTYYASWAKGRLTISKDTSKNQVVLTMTNMDPVDTATYYCARGVPAYSHGGDLWGQGTLVTVSSASTKGPSVFPLAPSSKSTSGGTAALGCLVKDYFPEPVTVSWNSGALTSGVHTFPAVLQSSGLYSLSSVVTVPSSSLGTQTYICNVNHKPSNTKVDKKVEPKSCDKTHTCPPCPADELLTGPSVFLFPPKPKDTLMISRTPEVTCVVVDVSDEDPEVKFNWYVDGVEVHNAKTKPREEQYNSTYRVVSVLTVLHQDWLNGKEYKCKVSNKALPKPIEKTISKAKGQPREPQVYTLPPSREEMTKNQVSLTCLVKGFYPSDIAVEWESNGQPENNYKTTPPVLDSDGSFFLYSKLTVDKSRWQQGNVFSCSVMHEALHNHYTQKSLSLSP light: DIVMTQSPATLSLSPGERATLSCTSSQSVYHANWLSWFQQKPGQPPKLLIYWASTLAYGVPSRFSGSGSGTDFTLTISSLQPEDAATYYCAGGYGGGRYAFGQGTKVEIKRTVAAPSVFIFPPSDEQLKSGTASVVCLLNNFYPREAKVQWKVDNALQSGNSQESVTEQDSKDSTYSLSSTLTLSKADYEKHKVYACEVTHQGLSSPVTKSFNRGEC | 6.8 |
| M103205H795-MY445/M103202L889-SK1 (antibody, human IgG1, kappa, copies: 2 + 2) heavy: QVTLKESGPVLVKPTETLTLTCTVSGIDLSHDDISWVRQAPGKGLEWVGIISYAGSTYYASWAKGRLTISKDTSKNQVVLTMTNMDPVDTATYYCARGVPAYSHGGDLWGQGTLVTVSSASTKGPSVFPLAPSSKSTSGGTAALGCLVKDYFPEPVTVSWNSGALTSGVHTFPAVLQSSGLYSLSSVVTVPSSSLGTQTYICNVNHKPSNTKVDKKVEPKSCDKTHTCPPCPAGELLTGPSVFLFPPKPKDTLMISRTPEVTCVVVDVSDEDPEVKFNWYVDGVEVHNAKTKPREEQYNSTYRVVSVLTVLHQDWLNGKEYKCKVSNKALPKPIEKTISKAKGQPREPQVYTLPPSREEMTKNQVSLTCLVKGFYPSDIAVEWESNGQPENNYKTTPPVLDSDGSFFLYSKLTVDKSRWQQGNVFSCSVMHEALHNHYTQKSLSLSP light: DIVMTQSPATLSLSPGERATLSCTSSQSVYHANWLSWFQQKPGQPPKLLIYWASTLAYGVPSRFSGSGSGTDFTLTISSLQPEDAATYYCAGGYGGGRYAFGQGTKVEIKRTVAAPSVFIFPPSDEQLKSGTASVVCLLNNFYPREAKVQWKVDNALQSGNSQESVTEQDSKDSTYSLSSTLTLSKADYEKHKVYACEVTHQGLSSPVTKSFNRGEC | 14 |
| M103205H795-MY444/M103202L889-SK1 (antibody, human IgG1, kappa, copies: 2 + 2) heavy: QVTLKESGPVLVKPTETLTLTCTVSGIDLSHDDISWVRQAPGKGLEWVGIISYAGSTYYASWAKGRLTISKDTSKNQVVLTMTNMDPVDTATYYCARGVPAYSHGGDLWGQGTLVTVSSASTKGPSVFPLAPSSKSTSGGTAALGCLVKDYFPEPVTVSWNSGALTSGVHTFPAVLQSSGLYSLSSVVTVPSSSLGTQTYICNVNHKPSNTKVDKKVEPKSCDKTHTCPPCPAFELLTGPSVFLFPPKPKDTLMISRTPEVTCVVVDVSDEDPEVKFNWYVDGVEVHNAKTKPREEQYNSTYRVVSVLTVLHQDWLNGKEYKCKVSNKALPKPIEKTISKAKGQPREPQVYTLPPSREEMTKNQVSLTCLVKGFYPSDIAVEWESNGQPENNYKTTPPVLDSDGSFFLYSKLTVDKSRWQQGNVFSCSVMHEALHNHYTQKSLSLSP light: DIVMTQSPATLSLSPGERATLSCTSSQSVYHANWLSWFQQKPGQPPKLLIYWASTLAYGVPSRFSGSGSGTDFTLTISSLQPEDAATYYCAGGYGGGRYAFGQGTKVEIKRTVAAPSVFIFPPSDEQLKSGTASVVCLLNNFYPREAKVQWKVDNALQSGNSQESVTEQDSKDSTYSLSSTLTLSKADYEKHKVYACEVTHQGLSSPVTKSFNRGEC | 1.9 |
| M103205H795-MY447/M103202L889-SK1 (antibody, human IgG1, kappa, copies: 2 + 2) heavy: QVTLKESGPVLVKPTETLTLTCTVSGIDLSHDDISWVRQAPGKGLEWVGIISYAGSTYYASWAKGRLTISKDTSKNQVVLTMTNMDPVDTATYYCARGVPAYSHGGDLWGQGTLVTVSSASTKGPSVFPLAPSSKSTSGGTAALGCLVKDYFPEPVTVSWNSGALTSGVHTFPAVLQSSGLYSLSSVVTVPSSSLGTQTYICNVNHKPSNTKVDKKVEPKSCDKTHTCPPCPAIELLTGPSVFLFPPKPKDTLMISRTPEVTCVVVDVSDEDPEVKFNWYVDGVEVHNAKTKPREEQYNSTYRVVSVLTVLHQDWLNGKEYKCKVSNKALPKPIEKTISKAKGQPREPQVYTLPPSREEMTKNQVSLTCLVKGFYPSDIAVEWESNGQPENNYKTTPPVLDSDGSFFLYSKLTVDKSRWQQGNVFSCSVMHEALHNHYTQKSLSLSP light: DIVMTQSPATLSLSPGERATLSCTSSQSVYHANWLSWFQQKPGQPPKLLIYWASTLAYGVPSRFSGSGSGTDFTLTISSLQPEDAATYYCAGGYGGGRYAFGQGTKVEIKRTVAAPSVFIFPPSDEQLKSGTASVVCLLNNFYPREAKVQWKVDNALQSGNSQESVTEQDSKDSTYSLSSTLTLSKADYEKHKVYACEVTHQGLSSPVTKSFNRGEC | 1.05 |
| M103205H795-MY443/M103202L889-SK1 (antibody, human IgG1, kappa, copies: 2 + 2) heavy: QVTLKESGPVLVKPTETLTLTCTVSGIDLSHDDISWVRQAPGKGLEWVGIISYAGSTYYASWAKGRLTISKDTSKNQVVLTMTNMDPVDTATYYCARGVPAYSHGGDLWGQGTLVTVSSASTKGPSVFPLAPSSKSTSGGTAALGCLVKDYFPEPVTVSWNSGALTSGVHTFPAVLQSSGLYSLSSVVTVPSSSLGTQTYICNVNHKPSNTKVDKKVEPKSCDKTHTCPPCPAEELLTGPSVFLFPPKPKDTLMISRTPEVTCVVVDVSDEDPEVKFNWYVDGVEVHNAKTKPREEQYNSTYRVVSVLTVLHQDWLNGKEYKCKVSNKALPKPIEKTISKAKGQPREPQVYTLPPSREEMTKNQVSLTCLVKGFYPSDIAVEWESNGQPENNYKTTPPVLDSDGSFFLYSKLTVDKSRWQQGNVFSCSVMHEALHNHYTQKSLSLSP light: DIVMTQSPATLSLSPGERATLSCTSSQSVYHANWLSWFQQKPGQPPKLLIYWASTLAYGVPSRFSGSGSGTDFTLTISSLQPEDAATYYCAGGYGGGRYAFGQGTKVEIKRTVAAPSVFIFPPSDEQLKSGTASVVCLLNNFYPREAKVQWKVDNALQSGNSQESVTEQDSKDSTYSLSSTLTLSKADYEKHKVYACEVTHQGLSSPVTKSFNRGEC | 8.8 |
